The test addresses 6x(His)-tagged SARS-CoV-1 RBD (SARS-CoV-1, strain , UniProt P59594). Kind of test: BLI. The conditions noted are these: both partners purified.

Data on one molecule can be found in paper PMC9714666 (Frontiers in Immunology, 2022).

B1: D27LE (antibody, V domains shown)
VH: QVQLQQSGAEVKKPGSSVKVSCKASGGTFGNWSISWVRQAPGQGLEWMGGIDPSRGEATYAQKFQGRVTITTDESTSTAYMELSSLRSEDTAVYYCARETWYTSGGMDVWGQGTTVTVSS
VL: SYELTQPPSVSVAPGKTARITCGGNNIGRKSVHWYQQKPGQAPVLVVYDDSDRPSGIPERFSGSNSGNTATLTISRVEAGDEADYYCQVYDLWSSDYVFGTGTKVEIK
A word on the Kd: it is the concentration at which binding is half-saturated. Read a low Kd as a tighter complex. Molecule B1 had a dissociation constant Kd of less than 0.01 nM.
